# Experimental data from the nanobody polyreactivity screen of Harvey et al. (2022).
# Assay: yeast display, Sf9 membrane polyspecificity reagent, FACS + sequencing; frameworks hold sequencing errors
# How it was run: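 In a synthetic yeast display library (Saccharomyces cerevisiae BJ5465), nanobody expression was induced with galactose for 36–48 hours. FACS gates were set low and high (top ~1%) using anti-HA fluorescence for expression and streptavidin fluorescence for binding of the Sf9 membrane reagent. Each polyreactivity label is drawn from the gate of origin.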
row,Sequence,polyreactivity (PSR sort gate)
1,QVQLVESGGGLVQAGGSLRLICAASGRTFSSYSMGWYRQAPGKERELVAAISRSGARTYYADSVKGRFTISRDNAKNTFYVQMNSLKPEDTAVYSCAGVTVAGYDYWGQGTEVTVSS,high polyreactivity
2,QVQLVESGGGLVQAGGSLRLICAASGRTFVYYAMGWYRQAPGKERELLAANSLSGSTYYAYSVKGRVTISRDNAKNTVDLHMYSLKPDDTAVYYCARPGGPDRTSSPYPYPYGYWGQGTQVTVSS,low polyreactivity
3,QVQLVESGGGLVQAGGSLRLICAASGRTFVYYAMGWYRQAPGKERELVAAISSSGGSTSYADSVKGRFTISRDNAKNTVYLQMNSLKPEDTAFYYCAADVSVSGYYYWGQGTQVTVSS,high polyreactivity
4,QVQLVESGGGLVQAGGSLRLICAASGRTFYYNAMGWYRQAPGKERELVAAINRGTGGTFYADSVKGRFTISRDNAKNTVYLQMNSLKPEDTAVYYCAADLDGSSEYEYWGQGTQVTVSS,low polyreactivity
5,QVQLVESGGGLVQAGGSLRLICAASGRTFYYYAMGWYRQAPGKERELVAAISKDGGRTYYADSVKGRFTISRDNAKHTVYLQMKSLKPEDTAVYYCAARYSSSRGLSSEYWGQGTQVTVSS,high polyreactivity
6,QVQLVESGGGLVQAGGSLRLICAASGRYYAMGWYRQAPGKERELVAAISSGGSTNYADSVKGRFTISRDNAKNTVYLQMNSLKPEDTAVYYCAALIRQLRYYLYYYWGQGTQVTVSS,high polyreactivity
7,QVQLVESGGGLVQAGGSLRLICAASGSFFSKYAMGWYRQAPGTEREWVAAISWSGTSTYYADSVKGRFTISRDNAKITVYLQLNSLKTEDNAVSYCAASSPRSLSLLGYWGQGTQVTESS,low polyreactivity
8,QVQLVESGGGLVQAGGSLRLICAASGSIFADYVMGWYRQAPGKERELVAAITIDGGSTYYADSVKGRFTISRDNAKNTVYLQMNSLKPEDTAVYYCAADSSGRSDSWGQGTQVTVSS,low polyreactivity
9,QVQLVESGGGLVQAGGSLRLICAASGSIFDYNAMGWYRQAPGKERELVAAITSTDSTYADSVKGRFTISRDNAKNTVYLQMNSLKPEDTAVYYCNARYLAWTYYYPYDYWGQGTQVTVSS,low polyreactivity
10,QVQLVESGGGLVQAGGSLRLICAASGSIFFWYTMGWYRQAPGKERELVATITGSGSSTTYADSVKGRFTISRDNAKYTVYLQMNSLKPEDTAVYYCAAADIIDHSFPYDYWGQGTQVTVSS,low polyreactivity
11,QVQLVESGGGLVQAGGSLRLICAASGSIFHIYMGWYRQAPGKEMEVVASISYRGGTTYYADSVKGRFTISRDNAKNSVYFQMNSLKPEDTAVYYCNVDRYFYHYGRYGHMDYWGQATQVTVSS,low polyreactivity
12,QVQLVESGGGLVQAGGSLRLICAASGSIFLHYGMGWYRQAPGKERELVAAISWRCRSTYYADSVKGRFTISRDNAKNTVYLQMNSLKPEDTAVYYCNAEYAFPLSGSGYWGQGTQVTVSS,low polyreactivity
13,QVQLVESGGGLVQAGGSLRLICAASGSIFLQYTMGWYRQAPGKERELVAAITESDGSTYYADSVKGRFTISRDNAKNTVYLQMNSLKPEDTGVYYCAAEVVYFKYWDKYDYWGQGTQVTVSS,low polyreactivity
14,QVQLVESGGGLVQAGGSLRLICAASGSIFRINAMGWYRQAPGKEMELVAAITGRVGSTYYADSVKGRFTISRDNAKNTVYLQMNSLKPEDTAVYYCAARAGSSRYTREYRYDYWGQGTQVTVSS,high polyreactivity
15,QVQLVESGGGLVQAGGSLRLICAASGSIFTIYAMGWYRQAPGKERELVAAISYSDTSTYYADSVKGRFTISRDNAKNTVYLQMNSLKPEDTAVYYCAAEDLWYIAYWDDMDYWGQGTQVTVSS,low polyreactivity
16,QVQLVESGGGLVQAGGSLRLICAASGSIFTRNAMGWYRQAPGKEREFVAAISSSGVSTYYADSVKGRFTISRDNAKNTVYLQMISLKPEDTAVYYCAARWGTKSGRYDYWGQGTQVTVSS,high polyreactivity
17,QVQLVESGGGLVQAGGSLRLICAASGSIFYHNGMGWYRQAPGKERELVAGISSTGSTYYADSVKGRVTLSRDNAKNTVYLQMNSLKPEDTAVYYCATDFGDIGDDAHSLGYDYWGQGTQVTVSS,low polyreactivity
18,QVQLVESGGGLVQAGGSLRLICAASGSIFYRNAMGWYRQAPGKERELVAAISSDGSTNYADSVKGRFTISRDNAKNTVYLQMNSLKPEDTAVYYCAAPWTQILDYWGQGTQVTVSS,low polyreactivity
19,QVQLVESGGGLVQAGGSLRLICAASGSIFYRYAMGWYRQAHGKEREFVAAITYSSRTTYYADSVQGRFTISRDNAKNTVYLQMNSLKPEDTAVYYCAAELSSSYYRRAMDYCGQGTQVTVSS,high polyreactivity
20,QVQLVESGGGLVQAGGSLRLICAASGSIIGVNAMGWYRQAPGKERELVAAITSTGGSTYYADSVKGRFTISRDNAKNTVYLKMNSLKPEDTAVYYCNTHYSKSIGEGYAGFDYWGQGTQVTVSS,low polyreactivity
21,QVQLVESGGGLVQAGGSLRLICAASGSILTHYAMGWYRQAPGKERELVAAITWRGGSTYYADSVKGRFTISRDNAKNTVYLQMNSLKPEDTAVYYCNADYFGGGDYWGQGTQVTVSS,low polyreactivity
22,QVQLVESGGGLVQAGGSLRLICAASGSTFAIYAMGWYRPAPGKERELVAAITGRSGSTYYADSVKGRFTISRDNAKNTVFLQMNSLKPEDTAVYYCAAQGGYRRTPYIHRDYWGQGTQVTVSS,high polyreactivity

row,Sequence,polyreactivity (PSR sort gate)
1,QVQLVESGGGLVQAGGSLRLICAASGSTFGFNAMGWSRQAPGKERELLPLLWSGGSTYYADSVKGRFTISRDNAKNTVYLQMNSLIPEDTAVYYCNKDSPPITRYDYWGQGTQVTVSS,low polyreactivity
2,QVQLVESGGGLVQAGGSLRLICAASGSTFGYYAMGWYRKAPGKERELVAVITYSGGSTYYADSVKGRFTISRDNAKNTVNLQMNSLKPEDTSVYYCSAVIGVWYYYTYDYWGQGTQVTVSS,low polyreactivity
3,QVQLVESGGGLVQAGGSLRLICAASGSTFHAYAMGWYRQAPGKEREMVAAISWRGGSTYYADSVKGRFTISRDNAKNTVYLQMNSLKPEDTAVYYCAASVQGLFGTSGMEGVDYWGQGTQVTVSS,high polyreactivity
4,QVQLVESGGGLVQAGGSLRLICAASGSTFIGNVMGWYRQAPGKERELVAAITSTDSTDYADSVKGRFTISRDNAKNTVYLQMNSLKPEDTAVYYCNAEYEYGSAYWSGVYYWYNYWGQGTQVTVSS,high polyreactivity
5,QVQLVESGGGLVQAGGSLRLICAASGSTFLGYAMGWYRQAPGKERELVAAISSGGGTYADSVKGRFTISRDNAKNSVYLQMNSLKPEDTAVYYCNADYSTPYRMDYWGQGTQVTVSS,low polyreactivity
6,QVQLVESGGGLVQAGGSLRLICAASGSTFPKYAMGWYRQAPGKERELVASISVTTGSTYYADSVKGRFTISRDYAKNTVYLQMNSLKPEDTAVYYCAKRTYSRKFRGAYNYWGQGTQVTVSS,high polyreactivity
7,QVQLVESGGGLVQAGGSLRLICAASGSTFPVNAMGWYRQAPGKERELVAAIRSSTGRTYYADSVKGRFTISRDNAKNTVYLQMNSLKPEDTAVYYCAAYYLGQYEYDYWGQGTQVTVSS,low polyreactivity
8,QVQLVESGGGLVQAGGSLRLICAASGSTFRKYVMGWYRQAPGKERELVAAITKNGGSTYYADSVKGRFTISRDNAKNTVYLQMNSLKPEDTAVYYCATLRTGRVGNQDYDYWGQGTQVTVSS,high polyreactivity
9,QVQLVESGGGLVQAGGSLRLICAASGSTFSQYTMGWYRQAPGKERELVAAITGSGGGTYYADSVKGRFTISRDNAKNTVYLHMESLKPVDTAVYYCAALTLNEKYTSRRGVYYWGQGSQVTVSS,high polyreactivity
10,QVQLVESGGGLVQAGGSLRLICAASGSTFSYYAMGWYRQAPGKEMELVAAITSGSSTNYADSVKGRFTISRDNAKNTVYLQMNSLKPEDTAVYYCAASPQPKTYRRRYYYWGQGTQVTVSS,high polyreactivity
11,QVQLVESGGGLVQAGGSLRLICAASGSTFYSYAMGWYRQVPGKERELVAAISRRGGSTYYADSVKGRFTISRDNAKNTVYLQMNSLKPEDTAVYYCAADWSRSSAEVDYWGQGTQVTVSS,high polyreactivity
12,QVQLVESGGGLVQAGGSLRLICAASGSTIVYYAMAWYRQAPGKERELVAAISRVGSTNYADSVKGRFTISRDNAKNTVYLQMNSLKPEDTAVYYCNAERSRRYSGWVNYAPLNYWGQGTQVTVSS,low polyreactivity
13,QVQLVESGGGLVQAGGSLRLICAASGSTIYSYAMGWYRQAPGKEREMVAANDWSGTSTYYADSVKGRFTISRDNAKNTVYLQMNSLKPVDTAVYYCNARKRRSYQGGYYYSLRNEYWGQGTQVTVSS,high polyreactivity
14,QVQLVESGGGLVQAGGSLRLICAASGSTSLVYAMGWYRQAPGKERDLVAAISWSGGSTYYADSVKGRFTISRDNAKNTVYLQMNSLKPEDTAVYYCAAEYYGYWEYDYWGQGTQVTVSS,high polyreactivity
15,QVQLVESGGGLVQAGGSLRLICAASGSTSPTNAMGWYRQAPGKEREFVAAIRGSGSSTRYADSVKGRFTISRDNAKNTVYLQMNSLKPEDTAVYYFDYWGQGTQVTVSS,low polyreactivity
16,QVQLVESGGGLVQAGGSLRLICAASGSTVYNAMGWYRQAPGTEREFVAVITDSDGSTYYADSVKGRFTISRDNAKNTVYLQMNSLKPEDTAVYDCAADDYAYSYGYWLTYDYWGQGTQVTVSS,low polyreactivity
17,QVQLVESGGGLVQAGGSLRLICAASGTFRINAMGWYRQAPGKEREFVATITSGGSTNYADSVKGRFTISRDNAKNTVYLQMNSLKPEDTAVYYCSRTRKIAGYYFWGQGTQVTVSS,high polyreactivity
18,QVQLVESGGGLVQAGGSLRLICAASGTNFVFNAIGWYRQAPGKERELVAINSGGSTYYADSVKGRFTNSRDNAKNTVFLQMNSLIPEDTAVYYCAKDRLRVWRFDYWGQGTQVTVST,low polyreactivity
19,QVQLVESGGGLVQAGGSLRLICAASGYIFATYAMGWYRQAPGKERELVAAITSTGSTYYADSVKGRFTISRDNAKNTVYLQMNSLKPEDTAVYYCAAVSGYRARYYLYYYWGQGTQVTVSS,high polyreactivity
20,QVQLVESGGGLVQAGGSLRLICAASGYTFKIKGMGWYRQAPGKERELVATIRAGGGNTYYADSVKGRFTISRDNAKNTVYLQMNSLKPEDTAVYYCNARYLRRTMEYWGQGTQVTVSS,high polyreactivity
21,QVQLVESGGGLVQAGGSLRLICAASGYTFLDYARGWYRQAPGKERELVASITSSGGSTYYADSVKGRFTISRDNAKNTVFLQMMSLIPEDTAVYYCASDGCIYYYFTLRYGYWGQGTQVTVSS,low polyreactivity
